Test results reported in paper PMC3394726.

Target: chymotrypsin (bovine)

scabies mite serpin SMSB3, wild type (from UniProt A0A131ZZL5 20-427) (natural protein)
stoichiometry of inhibition (SI) from residual chymotrypsin activity at a 2-120:1 molar excess of SMSB3: 12.9
